Publication doi:10.1101/2022.01.11.475884 (bioRxiv, 2022)

Target: T1, purified Mfn2 (human, UniProt O95140 1-757)
T1 sequence (looked up): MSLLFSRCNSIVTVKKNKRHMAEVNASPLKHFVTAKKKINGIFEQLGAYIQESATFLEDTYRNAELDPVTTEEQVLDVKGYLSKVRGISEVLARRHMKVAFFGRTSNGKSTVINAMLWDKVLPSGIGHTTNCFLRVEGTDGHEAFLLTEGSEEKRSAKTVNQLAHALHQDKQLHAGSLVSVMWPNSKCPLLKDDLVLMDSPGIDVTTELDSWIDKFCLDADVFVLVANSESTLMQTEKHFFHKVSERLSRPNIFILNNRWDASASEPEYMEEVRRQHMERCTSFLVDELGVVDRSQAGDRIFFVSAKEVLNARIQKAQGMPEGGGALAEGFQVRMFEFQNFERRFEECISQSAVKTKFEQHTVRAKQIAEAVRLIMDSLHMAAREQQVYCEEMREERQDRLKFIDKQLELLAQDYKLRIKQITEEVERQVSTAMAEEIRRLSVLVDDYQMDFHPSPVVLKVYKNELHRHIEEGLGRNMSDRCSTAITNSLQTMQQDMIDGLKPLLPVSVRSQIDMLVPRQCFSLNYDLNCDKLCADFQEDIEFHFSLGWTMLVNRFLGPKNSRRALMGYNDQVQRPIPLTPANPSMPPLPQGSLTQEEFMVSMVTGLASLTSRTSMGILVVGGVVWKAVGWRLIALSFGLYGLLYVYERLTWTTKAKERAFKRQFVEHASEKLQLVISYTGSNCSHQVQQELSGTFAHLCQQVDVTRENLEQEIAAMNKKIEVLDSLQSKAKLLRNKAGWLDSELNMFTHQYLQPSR
Assay: pull-down

binding result: binds
B1: purified and biotinylated TAK1 (enzyme, human, UniProt O43318 1-606, looked up)
chain: MSTASAASSSSSSSAGEMIEAPSQVLNFEEIDYKEIEVEEVVGRGAFGVVCKAKWRAKDVAIKQIESESERKAFIVELRQLSRVNHPNIVKLYGACLNPVCLVMEYAEGGSLYNVLHGAEPLPYYTAAHAMSWCLQCSQGVAYLHSMQPKALIHRDLKPPNLLLVAGGTVLKICDFGTACDIQTHMTNNKGSAAWMAPEVFEGSNYSEKCDVFSWGIILWEVITRRKPFDEIGGPAFRIMWAVHNGTRPPLIKNLPKPIESLMTRCWSKDPSQRPSMEEIVKIMTHLMRYFPGADEPLQYPCQYSDEGQSNSATSTGSFMDIASTNTSNKSDTNMEQVPATNDTIKRLESKLLKNQAKQQSESGRLSLGASRGSSVESLPPTSEGKRMSADMSEIEARIAATTAYSKPKRGHRKTASFGNILDVPEIVISGNGQPRRRSIQDLTVTGTEPGQVSSRSSSPSVRMITTSGPTSEKPTRSHPWTPDDSTDTNGSDNSIPMAYLTLDHQLQPLAPCPNSKESMAVFEQHCKMAQEYMKVQTEIALLLQRKQELVAELDQDEKDQQNTSRLVQEHKKLLDENKSLSTYYQQCKKQLEVIRSQQQKRQGTS
modifications: biotinylated
